The series deals with T1, GkDnaC replicative helicase WT (Geobacillus kaustophilus HTA426, UniProt Q5KU75 1-454).
T1 sequence: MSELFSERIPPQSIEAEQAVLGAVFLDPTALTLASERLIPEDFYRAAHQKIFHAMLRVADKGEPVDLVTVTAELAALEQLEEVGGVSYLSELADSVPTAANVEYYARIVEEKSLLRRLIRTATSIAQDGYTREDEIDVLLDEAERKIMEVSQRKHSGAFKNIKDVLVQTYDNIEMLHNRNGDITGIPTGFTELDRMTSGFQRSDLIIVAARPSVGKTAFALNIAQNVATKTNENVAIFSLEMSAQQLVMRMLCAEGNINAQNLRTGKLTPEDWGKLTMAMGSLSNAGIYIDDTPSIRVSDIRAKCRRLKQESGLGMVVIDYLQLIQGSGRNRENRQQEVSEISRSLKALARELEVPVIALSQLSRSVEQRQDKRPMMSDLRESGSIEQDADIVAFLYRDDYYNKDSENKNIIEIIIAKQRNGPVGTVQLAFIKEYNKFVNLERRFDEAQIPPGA
In words: SPR. A general note: In SPR one partner is held on a chip, and binding of the other changes the refractive index at the surface.

As usually defined, the Kd is a measure of binding affinity in units of concentration. As for TTTTTTTTTTTTTTTTTTTTTTTTTTTTTT (ssDNA) [5'Bio-(dT)30], the Kd amounted to 46.9 nM.
